# System: NC(C(=O)O)C(O)c1ccccc1
# Test: purified protein
# Details: pH 7.8; 40.0 °C
substance,measurement,value
AnSHMT (Glutamicibacter nicotianae; I249L),Km,61.95 ± 0.13 mM
same,kcat/Km,76.8 M⁻¹ s⁻¹

# Source: paper PMC4260256, “A novel serine hydroxymethyltransferase from Arthrobacter nicotianae: characterization and improving catalytic efficiency by rational design” (BMC Biotechnology, 2014)
